Source: the DeepSol protein solubility set

Assay: soluble on expression in E. coli; label from the status in PepcDB or PDB records

Sequence	soluble on expression in E. coli
MGSSHHHHHHSSGLVPRGSHMIRNRVMNSVVNKYLLHNRSIMFKNDQDVERFFYKREIENRKKHKQPSTLNVKANLEKLSLDDMQVFRFNFRHQIDKKILYIHGGFNALQPSPFHWRLLDKITLSTLYEVVLPIYPKTPEFHIDDTFQAIQRVYDQLVSEVGHQNVVVMGDGSGGALALSFVQSLLDNQQPLPNKLYLISPILDATLSNKDISDALIEQDAVLSQFGVNEIMKKWANGLPLTDKRISPINGTIEGLPPVYMFGGGREMTHPDMKLFEQMMLQHHQYIEFYDYPKMVHDFPIYPIRQSHKAIKQIAKSIDEDVTQNN	soluble
DALEVAEKVTAVIFDKTGTLTKLKESAKPAVQELKRMGIKVGMITGDNWRSAEAISRELNLDLVIAEVLPHQKSEEVKKLQAKEVVAFVGDGINDAPALAQADLGIAVGSGDIVLIRDDLRDVVAAIQ	soluble
MSIKIKNAVEIEKMRVAGRLAAEVLEMIEPHVKAGVTTEELDQICHKYITEVQGAIPAPLNYHGFPKSICTSINHIVCHGIPASEDTYFGQIQRPAVLRDGDILNIDITVIKDGYHGDTSKMFLIGDVSIEDKRLCHVAQECLYLALKQVKPGVQLGEIGTTIEKHIKTNNKNNPRFKFSIVRDYCGHGIGAEFHEEPQVVHYKNSDRTVLREGMIFTIEPMINAGKFGCRLDDEDSWTVYTADGKKSAQWEHTILVTATGCEILTLRSEESLPRILNNA	not soluble
SNAQESRLDRILESGVLRVATTGDYKPFSYRTEEGGYAGFDVDMAQRLAESLGAKLVVVPTSWPNLMRDFADDRFDIAMSGISINLERQRQAYFSIPYLRDGKTPITLCSEEARFQTLEQIDQPGVTAIVNPGGTNEKFARANLKKARILVHPDNVTIFQQIVDGKADLMMTDAIEARLQSRLHPELCAVHPQQPFDFAEKAYLLPRDEAFKRYVDQWLHIAEQSGLLRQRMEHWLEYR	soluble
MTIRNFAIEYDAINDRNTFSNGDTLAGRVIVEVSKQTKITSLTVQAKGKANVAWTETHGEESVTYWDKEKYFSQTQSVLPEDKADGSVTLVAGRHVFPFAFQLPNQSLPSSFKGVHGKIHYRLMAKLSRSFRAASKAEAKFTFVARADYDTSTLTTPQHGSKDKNVMFFASGNISMDIFLPKTGYQQGEGLIVNGEIVNSSTRKIVPKYIIYQKQSFFAGGQRAVHTTEILKEKGEPLVSSTRENLYKVLPLPPEISSTIHNCRILKVEYRLKVILDVSFTKNPVIKLPFIVLPLCNETPPKAIEEGLYPDLAKMKISN	soluble
EQAPQYVDETISLSAKTLFGFDKDSLRAEAQDNLKVLAQRLSRTNIQSVRVEGHTDFMGSDKYNQALSERRAYVVANNLVSNGVPVSRISAVGLGESQAQMTQVCEAEVAKLGAKVSKAKKREALIACIEPDRRVDVKIRSIVTRQVVPAHNHHQHLEHHHHHH	soluble
MKIQCDVCEKAPATLICCADEAALCAKCDVEVHAANKLASKHQRLFLDSLSTKFPPCDICLEKAAFIFCVEDRALLCRDCDEATHAPNTRSANHQRFLATGIRVALSSTSCNQEVEKNHFDPSNQQSLSKPPTQQPAAPSPLWATDEFFSYSDLDCSNKKEQLDLGELDWLAEMGLFGDQPDQEALPVAEVPELSFSHLAHAHSYNRPMKSNVPNKKQRLEYRYDDEEEHFLVPDLG	not soluble
MQKGVYIMNSTSSIITIGREYGSGGRQIGQEVAKYFGIKCYDKELLEHAANDSGICKELFEHHDEKPTNSFLYSLVMDTYSFGYSSSGFSDMPMNHKIFLAQFDAIKKLAGEGPCVMVGRCADYALADWNDCFSIFVHADLDWRINRIASKHGKTPKEAKDMITKTDKSRASYYNYYTNKKWGAARSYNLCIDSGKLGIDYATEAIIESIKIFDRTKISK	not soluble
MGSDKIHHHHHHMDMNQGGLISLSPHAQVLLRPEGIQFGLDSANAGIFAAPESLIVAIVQVLRGFWQPIAKTTAIEQLTEAGLQPVAARGLIDDLLHHRVLSIVERNLTVAVGGFGPLVAPIKAVLGCAGISVVQAHTIQRCMTLESLLSREVPLIWINSTPSFSHIAQELVEVKTMIPVGLMDNHAIIGPVRIDGRGPCGLCTDLYRSDADPQWPALLKNATAPLTAPAALTYATAARVTRLVEQLSEPRQRVTVTAGLVIRVSSDGELSSEIMSPHSRCPLCWSSRWDCDPLTGTEQAFLADLGQNVLL	not soluble
MRSIVGDLLLLRLGDVAEGPMNQRLYRAIREAILDGAIAADTRLPATRDLAAELGIARNTVVHVYSQLQAEGYTHSRQGNGTFVTASLPDAYLASGRHARRPAIAAVRPTLSERGARIVDQVSASPYQWGAFMPGVPDLTEFPHQKFGRLFSTLWRNPHPEMLTYAYGGGLPALREALAQHLALTRSIDCDPEQIIITEGSHQAIDLATRILGGHGDLAWIENPGYWGARSVLIANGIRIEPLPVDEEGMQLPAEPVAQPPRFIFVTPSHQYPLGSVMSLARRRQLLALARSWGSWIIEDDYDSEFRFSGRPISSLQGLEPDAPVIYLGTFSKTLYPGLRVGYLVLPKALAGAFQAAHAELYREGHLVTHAVLASFIAEGHYAAHIRRMRMLYGRRRAILVNLIERRLGAQWLHPDSSDAGLHLVLDFPSGLDDKQVMQAAHARGVLTRALSRYYAEGTTPRQGLLLGYACVPENDIARKFELVLDSLAEVAQRSRA	not soluble
MGSDKIHHHHHHMQLPGGVQLTYCTNLHAASSLDEVRANLDRYAVPLKARLSPNAPFGIGLRLSGQESAELLEGQALAAFKAFLDERGLYVFTLNGFPYGPFHGQPVKTQVHAPDWRDAERVAYTQRLAEILAFLLPEGGEGGISTSPLSYRGWVEADSRSAWIQMTGNLVRVVETLIRLRQRWGRFIHLDLEPEPDGLLQCSDDLARFFREHLLGGGARDLAARLGIDVEQARAYLRDHVQVCFDTCHVAVMYEDPAQALQTYEQVGLRIGKVQISSALRLPLPPDPEARLDGARALVPFVEDTYLHQVIGRSRDGKIVQYPDLPPALAHVRDPQVTEWRIHFHIPVFLERAGLFASTQPEIVKTLALLREKGFTRHLEIETYTWDVLPEALKLPLLCSIEREYRWVMDVL	not soluble
MGSDKIHHHHHHMSEYIQLYRYLNSRLPGVERKRLVLLTGARQTGKTTLAKAKYADLRYVNLDAPENREAVRTIASAFWARDIGPAVLDEAQKEPVVFDKVKYAYDDGALSFSVLLGSSQILLLKKIRETLAGRISIYELWPLLMSEICNGSAAPPSSPPLVDCLFSDMTCDDFFGDKPGILLDMEDACRRRAEEHLLQWGGMPSLLPLNTEERRQWLKDYGYTYLERDMADLARLEDLMPFRKFQRLAALRSGCLLNYSELARDAAISVDTARRYLEYLRLSYQTVFLPPYHVNLTSAVVKTPKVYWLDVGLLRQLSGMQGPTTGEIYETMVVGELMKWMKTAGREGDVFFYRTRSGLEVDVLLETPSGVVGMEIKSRRVLAARDLTGLKEIALALGPRWRGGLVIYQGDELKRIGTPQLWAVPSRRLFTGIE	not soluble
SENVPFASKERADIFSMRTLIDFGGIAILHAYQSRISEYIAEKELSAMNVILKSQYDQYRNYQDSLDLIQMKYHDLKHQITALRAESDAEKRKKWIDAMEEEVSAFENMSKTGNQVLDTILAAKIFHCRKNHIQITCVADGKLLDFIHVTDLCSIFGNALDNAIEHVIMIPEAEKRLIHLTVSAKKSFVFIKIENYCEDKIQKNENDLITTTKADRQNHGFGLKSIRTVVEKYNGSVDFGVDQNWFELKILLPRVM	not soluble
MAHHHHHHMVLHIYHAAVGEKEFQFSTNINKLTQETYELDVNEAIEEVSSTILEQLTGEDALCCECKAAPATRLIHHTMLFAETFPPRVEDLPQPVCNSANCEAVAKSRYLMDMEDATTAQGMPSPNGCFHCHKGARGAATVPLQRCSRCKVAKYCSVECQKADWKVHKQVCAPG	not soluble
